Data taken from the RNAGym collection of RNA variant scans (doi:10.1073/pnas.2313332121).

B1: TPR t1 (parent)
chain: GACCAAUCUGCCCUCAGAGCUCGAGAACAUCUUCGGAUGCAGAGGAGGCAGGCUUCGGUGGCGCGAUAGCGCCAACGUCCUCAACCUCCAAUGCAUCCCACCACAUGAUGAUGCCUGAAGAGCCUUGGUUUUUUG

Variants of: B1
Assay: polymerase ribozyme fitness, log enrichment relative to wild type (log ratio); higher = more active; in vitro selection for triplet polymerase activity
How it was run: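 Mutant libraries of both subunits of a heterodimeric triplet polymerase ribozyme were PCR-built, transcribed, and selected once in triplicate, with frozen incubation at −7 °C and capture of gel-excised extended constructs on streptavidin beads before RT-PCR. Illumina sequencing of input and output libraries was filtered to genotypes with ≥10 input reads and ≥1 read per output. Fitness is the logarithm of genotype enrichment over wild-type enrichment, using inverse-variance-weighted replicate averages. The logarithm is base 2.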

| Variant | polymerase ribozyme fitness (log ratio) |
| --- | --- |
| GACCAAUCUGCCCUCAGAGCUCGAGAACAUCUUCGGAUGCAGAUGAGGCAGGCUUCGGUGGCGCGAUAGCGCCAACGUCCUCAACCUCCAAUGCAUCACACCACAUGAUGAUGCCUGAAUAGCCUUGGUUUUUUG [G44U C98A G120U] | -6.27 |
| GACCAAACUGCCCUCAGAGCUCGAGAACAUCUUCGGAUGCAGAGGACGCAGGCUUCGGUGGCGCGAUAGCGCCAACGUCCUCAACCUCCAAUGCAUCCCACCACAUGAUGAUGCCUGAAGAGCCUUGGUUUUUUG [U7A G47C] | -1.26 |
| GACCAAUCUGCCCUCAGAGCUCGAGAACAUCUUCGGAUGUAGAGGAGGAAGGCUUCGGUGGCGCGAUAGCGCCAACGUUCUCAACCUCCAAUGCAUCCCACCACAUGAUGAUUCCUGAAGAGCCCUGGUUUUUUG [C40U C49A C79U G113U U125C] | -4.03 |
| GACCAAUCUGCCCUCAGAGCUCGAGAACAUCUUCGGAUGCAGAGGAGGCAGGCUUCGGUGCCGCGAUAGCGCCAACGUCCUCAACCUCCAAUGCAUCCCACCACAUGAUGAUGCCUGAUGAGCCUUGGUUUUUUG [G61C A119U] | -1.89 |
| GAUCAAUCUGCCCUCAGAGCUCGAGAACAUCUUCGGAUGCAGAGGAGGCAGGCUUCGGGGGCGCGAUAGCGCCAACGUCCUCAACCUCCAAUGCAUCCCACCACAUGAUGAUACCUGAAGAGCCUUGGUUUUUUG [C3U U59G G113A] | -1.89 |
| GACCAAUCUGCCCUCAGAGCUCGAGAACAUCUUCGGAUGCAGAGGAGGCUGGCUUCGGUGGCGCGAUAGCGCCAACGUCCUCAACCUCCAAUGCAUCCCACCACAUGAUGAUGCCUGAAAAGCCUUGGUUUUUUG [A50U G120A] | -0.296 |
| GACCAAUCUGCCCUCAGAGCUCGGGAACAUCUUCGGAUGCAGAGGAGGCAGGCCUCGGUGGGGCGAUAGCGCCAACGUCCUCAACCUCCAAUGCAUCCCACCACAUGAUGAUGCCUGAAGAGCCUUGGUUUUUUG [A24G U54C C62G] | -3.96 |
| GACCAAUCUGCCCUCAGAGCUCGAGAAGAUCCUCGGAUGCAGAGGAGGCAUGCUUCGGUGGCGCGAUAGCGCCAACGUGCUCAACCUCCAAUGCAUCCCACCACAUGAUGAUGCCUGAAGAGCCUUGGUUUUUUG [C28G U32C G51U C79G] | -5.29 |
| GACCAAUCUGCCAUCAGAGCUCGAGAACAUCUUCGGAUGAAGAGGAGGCAGACUUUGGUGGCGCGAUAGCGCCAACGUCCUCAACCUCCAAUGCAUCCCACCACAUGAUGAUGCCUGAAGAGCCUUGGUUUUUUG [C13A C40A G52A C56U] | -2.98 |
| GACCAAUCUGCCCUCAAAGCUCGAGAACAUCUUCGGAUGCAGAGGAGACAGGCUUCGGUGGCGCGAUAGCGCCAACGUCCUCAACCUCCAAUGCCUCCCACCACAUGAUGAAGACUGAAGAGCCUUGGUUUUUUG [G17A G48A A95C U112A C114A] | -6.73 |
| GACCAAUCUGCCCUCAGAGCUCGAGAACAUCUUCGGAUGCAGAGGAGGCGGGCUUCGGUGGCGCGAUAGCGCCAAGGUCCUCAACCUCCAAUGCAUCCCACCACAUGAUGAUGCCUGAAGAGCCUUGGUUUUUUG [A50G C76G] | -0.226 |
| GACCAAUCUGCCCUCAGAGCUCGAGAACAUCUUCGGAUGCAGAGGAGGCAGGCUUCGGUGGCGCGAUAGCGCCAACGUACUCAACCUCCAAUGCAUCCCACCACAUGAUGAUGCCUGAAGAGCGUUGGUUUUUUG [C79A C124G] | -0.697 |
| GACCAAUCUGCCCUCAGAGCUCGAGAACAUCUUCGGAUGCAGAGGAGGCAGGCUUCGGUGGCGCGAUAGCGCCAACGUCCUCAACCUCCAAUGCAUCCCACCACAUGAUAAUGCCUGAAGAGCUUUGGUUUUUUG [G110A C124U] | -0.567 |
| GACCAAUCUGCCCUCAGAGCUCGAGAACAUCUUCGGAUGCAGAUAAGGCAGGCUUCGGUGGCGCGAUAGCGCCAACGUCCUCAACCUCCAAUGCAUCCCACCACAUGAUGAUGCCUGAAGAACCUUGGUUUUUUG [G44U G45A G122A] | -3.13 |
| GACCAAUCUGCCCUCAGAGCUCGAGAACAUCUUCGGAUGCAGAGGAGGCAGGCUUCGGUGGCGCGAUAGCGCCAACGUCCUCAACCUCCAAUGCAUCCCACCACAUGAUGAGGCCUGAAGAGCCUUGGUUUUGUG [U112G U133G] | -0.442 |
| GACCAAUCCGCCCUGAGAGCUCGAGAACAUCUUCGGAUGCAGUGGAGGCAGGCUUCGGUGGCGCGAUAGCGCCAACGUCCUCAACCUCCAAUGCAUCCCACCACAUGAUGAUGCCUGAAGAGCCUUGGUUCUUUG [U9C C15G A43U U131C] | -2.2 |
| GACCAAUCUGCCCUCAGAGCUCGAGAAAAUCUUCGGAUGCAGAGGAGGCAGGCUUCGGUGGCGCGAUAGCGCCAACGUCUUCAACCUCCAAUGCAUCCCACCACAUGAUGGUGCCUGAAGAGCCUUGGUUUUUUG [C28A C80U A111G] | -5.64 |
| GACCAAUCUGCCGUCAGCGCUCGAGAACAUCUUCGGAGGCAGAGGAGGCAGGCUUCGGUGGCGCGAUAGCGCCAACGUCCUCAACCUACAAUGCAUCCCACCACAUGAUGAUGCCUGAAGUGCCUUGGUUUUUUG [C13G A18C U38G C88A A121U] | -3.5 |
| GACCAAUCUGCCCUCAGAGCUCGAGAACAUCUUCGGAUGCAGAGGAGGCAGGCUUCGGUGGCGCGAUAGCGCCAACGUCCUCACCCUCCAAUACAUCCCAUCACAUGAUGAUGCCUGAAGAGCCUUGGUUUUUUG [A84C G93A C101U] | -1.17 |
| GACCAAUCUGCCCUCAGAGCUCGAGAACAUCUUCGGAUGCAGAGGAGGCAGGCUUCGGUGGCGCGAUAGCGCCAACGUCCUCAACCUCUAAUGCAUCCCACCACAUGAUGAUGCCUGAAGAGCCUUGGUUUUUUU [C89U G135U] | -0.983 |
| GACCAAUCUGCCCUCAGAGCUCGAGAACAUCUUCGGAUGCAGAGGAGGCAGGCUUCGGUGGCGCGAUAGGGCCAACGUCCUCGACCUCCAAUGCAUCCCACCACAUGAUGACGCCUGAAGAGCCUUGGUUUUUUG [C70G A83G U112C] | -3.8 |

| Variant | polymerase ribozyme fitness (log ratio) |
| --- | --- |
| GACCAAUCUGCCCUCAGAGCUCGAGAACAUCUUCGGAUGCAGAGGAGGCAGGCUCCGGUGGCGCGAUAGCGCCAACGUCCUCAACCUCCAAUGCAUCCCACCACAUGAUGUUGCCUGACGAGCCUUGGUUUUUUG [U55C A111U A119C] | -5.71 |
| GACCAAUCUGCUCUCAGAGCUCGAGAACAUCUUCGGAUGCCGAGGAGGCAGGCUUCGGUGGCGCGAUAGCGGCAACGUCCUCAACAUCCAAUGCAUCCCACCACAUGAAGAUGCCUGAAGAGCCUUGGUUUUUUG [C12U A41C C72G C86A U109A] | -7.19 |
| GACCAAUCUGCCCUCAGAGCUCGAGAACAUCUUCGGAUGCAGAGGAGGCAGGCUUCGGUGGCGCGAUAGCUCCAACGUCCUCAGCCUCCAAUGCAUCCCACCACAUGAUGAUGCCUGAAAAGCCUUGGUGUUUUG [G71U A84G G120A U130G] | -1.33 |
| GACAAAUGUGCCCUCAGAGCUCGAGAACAUCUUCGUAUGCAGAGUAGGCAGGCUUCGGUGGCGCGAUAGCGCCAACGACCUCAACCUCCAAUGCAUCCCACCACAUGAUGAUGUCUGAAGAGCCUUGGUUUUUUG [C4A C8G G36U G45U U78A C114U] | -5.41 |
| GACCAAUCUGCCCUCAGAGCUCGAGAACAUCUUCGGAUGCAGAUGAGGCAGGCUUCGGUGGGGCGAUAGCGCCAACGUUCUCAACCUCCGAUGCAUCCCACCACAUGAUGAUGCCUGAAGAGCCUUGGUUUUUUG [G44U C62G C79U A90G] | -1.45 |
| GACCAAUCUGCCCUCAUAGCUCGAGAACAUCUUCGGAUGCAGAGGAGGCAGGCUUCGGUGGCGCGAUAGCGCCAACGUCCUCAACCUCCAAUGCAUCCCAUCACAUGAUGAUGCCUGAAGAGCCUUGGUUUUUUG [G17U C101U] | -2.53 |
| GACCAAUCUGCCCUCAGAGCUCGAGAACAUCUUGGGAUCCAGAGGAGGCAGGCUUCGGUGGCGCGAUAGCGCCAACGUCCUCAACCUCCAAUGCAUCCCACCACAUGAUGAUGCCUGAAUAGCCUUGGUUUUUUG [C34G G39C G120U] | -6.09 |
| GACCAAUCUGGCCUCAGUGCUCGAGAACAUCUUCGGAUGUAGAGGAGGCAGGCUUCGGUGGCGCGAUAGCGCCAACGUCCUUAACCUCCAAUGCAUCCAACCACAUGAGGAUGCCUGAAGAGCCUUGGUUUUUUG [C11G A18U C40U C82U C99A U109G] | -5.71 |
| GACCAAUCUGCCCUCAGAGCUCGAGAACAUCUUCGGAUGCAGAGGAGGCAGGCUUCGGUGGCGCGAUAGGGCCAACGUCCUCAACCUCCAAUGCAUCCCACCACAUGAUGAUGCCUGAAGAGCAUUUGUUUCUUG [C70G C124A G127U U132C] | -0.524 |
| GACCAAUCUGCCCUCAGAGCUCGAGAACAUCUUCGGUUGCAGAGGAGGCAGGCUUCGGUGGCGCGAUAGCGCCAACGUCCUCAACCUCCAAUGCAUCCCACCACAUGAUGAUGCCUGAAGCGCCUGGUUUUUUUG [A37U A121C U126G G128U] | 0.977 |
| GACCAAACUGCCCUCAGAGCUCGAGAACAUCUUCGGAUGCGGAGGAGGCAGGCUUCGGUGGCGCGAUAGCGCCAACGUCCUCAACCUCCAAUGCAUCCCACCACAUGAUGAUGCCUGAAGAGCCUUGGUUUUUUG [U7A A41G] | 0.181 |
| GACCAAUCUGCCCUCAGCGCUCGAGAACAUCUUCGGAUGCACAGGAAGCAGGCUUCGGUGGCGCGAUAGCGCCAACGUCCUCAACCUCCAAUGCAUCCCACCACAUGAUGAUGCCUGAAGAGCCUUGGUUUUUUG [A18C G42C G47A] | -2.35 |
| GACCAAUCUGCCCUCAGAGCUCGAGAACAUCUUCGGAUGCAGAGGAGGCAGGCUUCGGUGGGGCGAUAGCGCCAACGUCCUCAACCUUCAAUGCAUCCCACCACAUGAUGAUGCCUGAAGAGCCUUGGUUUUUUG [C62G C88U] | -1.37 |
| GACCAAUGUGCCCUCAGAGCUCGAGAACAUCUUCGGAUGCAAAGGAGGCAGGCUUCGGUGGCACGAUAGCGCCAACGUCCUCAACCUCCAAUGCAUCCCACCACAUGAUGAUGCCUGAAGAGCCUUGGUUUUUUG [C8G G42A G63A] | -2.89 |
| GACCAAUCUGCCCUCAGAGCUCGAGAACAUCUUCGGAUGCAGAGGAGGCAGGCUUCGGUGGCGCGAUAGCGCCAACGUCCACAACUUCCAAUGCAUCCCACCACAUGAUGAUGCCUGAAGAGCCUUGGUUUUUUG [U81A C86U] | -1.8 |
| GACCAAUCUGCCCUCAGAGCUCGAGAACAUCUUCGGAUGCAGAGGAGACAGGCUUCGGUGGCGCGAUAGCGCCAACGUCCUCAACCUCCAAUGCAUCCCACCACAUGAUGGUGCCUGAAGAGCCUUGGUUUUUUG [G48A A111G] | -0.578 |
| GACCAAUCUGCCCUCAGAGCUCGAGAACAUCUUCGGAUGCAGAGGAGCCAGGCUUCGGUGGCGCGAUAGCGCCAACGUCCUCAACCUCCAAUGCAUCCCACCUCAUGAUGAUGCCUGAAAAGCCUUGGUUUUUUG [G48C A103U G120A] | -6.04 |
| GACCAAUCUGCCCUCAGUGCUCGAGAACAUCUUCGGAUGCAGAGAAGGCAGGCUUCGGUGGCGCGAUAGCGCUAACGUCCUCAACCUCCAAUGCAUCCCACCACAUGAUGAUGCCUGAAGAGCCUUGGUUUUUUG [A18U G45A C73U] | -2.84 |
| GACCAAUCGGCCCUCAGAGCUCGAGAACAUCUUCGGAUGCAGAGGAGGCAGGCUUCGGUGGCGCGAUAGCGCCAACGUCCUCAACCUCCAAUGCAUCCCACCACAUGAUUAUGCCUGAAGAGCCUUGGUUUUUUG [U9G G110U] | -1.36 |
| GACCAAUCUGCCUUCAGAGCUCGAGAACAUCUUUGGAUGCAGAGGAGGCAGCCUUCGGUGGCGCGAUAGAGCCAACGUCCUCAACCUCCAAUGCAUCCCACCACAUGAUGAUGCCUGAAGAGCCUUGGUUUUUUG [C13U C34U G52C C70A] | -5.48 |
| GAUCAAUCUGCCCUCAGAGCUCGAGAACAUCUUCGGAUGCAGAGGAGGCAGGCUUCGGUCGCGCGAUAGCGCCAACGUCCUCAACCUCCAAUGCAUCCCACCACAUGAUGAUGCCUGAAGAGCCUUGGUUUUUUG [C3U G60C] | -0.334 |
